According to article PMC6940360:

Biological target: Taxol-stabilized microtubules (MTs) from HeLa S3 cells (human (endogenous in HeLa S3)) (UniProt P68363)
Assay: solid-state NMR (J-based 2D 15N-HSQC); unlabeled MAP7-MTBD added to [13C,15N]-labeled MTs at molar ratio 2:1 MAP7-MTBD:MT in BRB80 with 20 uM taxol, 30 °C for 30 min, pelleted at 180,000 x g; MAS 44 kHz, actual temperature 293 K; bound population from a two-state model, P_bound = 1 - I_bound/I_free

B1: MAP7-MTBD (microtubule-binding domain of MAP7D3, residues 59-170) (domain or fragment)
chain: DGSMLKNDIKQRLARERREEKRRQQDANKETQLLEKERKTKLQYEKQMEERQRKLKERKEKEEQRRIAAEEKRHQKDEAQKEKFTAILYRTLERRRLADDYQQKRWSWGGSA
bound population of alpha-tubulin Tyr451 (P bound): 65% | bound population of beta-tubulin Ala444 (P bound): 25% | bound population of tail residues around the EGE and FGE segments (P bound): < 80%
